# Results: the supplement of paper PMC12042874
# ± gives the uncertainty stated by the source.
# Test: amyloid nucleation score (Sup35N fusion, yeast selection) (log enrichment); library NNK3; higher = more nucleation; inactive = no reads after selection
# How it was run: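 Yeast lacking psi expressed peptides of 20 random codons fused to Sup35N, received 100 μM copper sulfate for 24 hours, and were then grown for 7 days at 30°C on medium lacking adenine and uracil. Illumina sequencing of input and output plasmid inserts provided the reads. Nucleation scores are DiMSum log enrichments of output over input, centred on the mode of non-aggregating sequences. Any sequence with under 100 input reads was excluded.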
row,Substance,amyloid nucleation score
1,LHTICHMLLIH,inactive
2,RDIMGLDLFQARNTTRSNYK,inactive
3,IWDGSADKFVDPHRACRLWR,inactive
4,TTGMRYCLVFDIGFSFWLFM,inactive
5,GYMDAGIDWF,inactive
6,MTSFIFDVFCSCSCLYQRPL,inactive
7,RILPYSGSALLISTGFYHR,inactive
8,TNAFRLVLTNMKI,inactive
9,RSLVCRFLTGTDMVCGIGVT,inactive
10,KGVGHSTLTIIFLLSALRFS,1.02 ± 0.14
11,LRMFNGSEAIYFMLVQSLFR,inactive
12,MNVFWCACYRCSDRVSMKVW,2 ± 0.058
13,NSETRRIHSKVKLMLIVRLA,inactive
14,TWYVLSNDNSCVYTGPTCQ,inactive
15,FVIFW,inactive
16,NVAFQCQKLTLLKGKLEPDR,0.272 ± 0.93
17,GLQVYMIQRIETGM,inactive
18,YVDNLACLNSFPIMPVFKVG,inactive
19,ELLVNN,inactive
20,TMVLIICDN,inactive
21,SCEFYDSVLWSYFKMAMFAL,-0.698 ± 0.8
22,LSFYCFNYSNFDMVWNGKYN,2.29 ± 0.062
23,IRPSLLMSLQNNDMMADLEV,-0.538 ± 0.55

row,Substance,amyloid nucleation score
1,PTFFTSVLGFNYRVLYRIAV,inactive
2,DIRYLISSTRYLDVMEGFLV,inactive
3,RRVTRSSKAYRVGVSWDGIG,0.047 ± 0.33
4,QYFSWKIRSGNLVYAF,inactive
5,YVFFLSLNIKPMLYTTLVGV,-0.138 ± 0.51
6,VSSSDNSVEIDRVHKMSMVE,inactive
7,VHFCWNADVSLHITLVGINS,inactive
8,YTPRFMISSWVLRDFIHGVS,inactive
9,FWSSLAVQRACKCMGGFCDL,inactive
10,TDLGSVGGW,-0.206 ± 1.5
11,SASLLN,inactive
12,ITALDWY,inactive
13,RMSRNMWFWLRLNSNYIVFS,inactive
14,ARYRHGFTALRND,inactive
15,PHMSLKTFSDS,inactive
16,RVGVACKCFIQCLYFVFISI,inactive
17,RSGWCHLPQVRNMWTVIIDG,-0.648 ± 1.1
18,GGVTFYMYCIRLVNDQQGHR,1.21 ± 0.098
19,NLNYRLADSCLNSVLDRLGQ,inactive
20,NSTKLKPYWGPG,inactive
21,VRISHYA,inactive
22,NLSNIFQSNMYVTRSVNGVR,1.68 ± 0.084
23,NCHSFVYYSMLGVSLSISGN,2.29 ± 0.059

row,Substance,amyloid nucleation score
1,CMGACLAGDTCKWIRQHLSG,inactive
2,DMMYVIRIFFLATEYSSLHP,inactive
3,SCRLWHKRANRVGF,inactive
4,FLCRAVRDKNHDIGLCWELR,-0.488 ± 0.8
5,TTSEAIMLGCSISTYNQSGN,inactive
6,GRLSTAICFCGTMPSRWGFS,inactive
7,HLVAVWVSWGILYRSVHCRS,inactive
8,IVCRISTTCQWCRINVSGGS,1.12 ± 0.1
9,GFYLVKSSMSWVANWCGKHT,inactive
10,RSTQRTLPQ,inactive
11,AVSLTW,inactive
12,DDGSKCLLSSMMFVNLVTYC,inactive
13,CVLSSRF,inactive
14,YGFRVCYPQASMSTVVEHSR,inactive
15,NSGDGSGVRFYSDNMDTYMA,0.185 ± 0.88
16,YSAAEDVKWVLGFCYAGFNS,inactive
17,LFYSTARCEKSRCVMGRMRG,inactive
18,ANRKSRVKSEEWAEVNGCWG,inactive
19,VFSFLYIRNV,1.55 ± 0.087
20,NLSWVLAILCCGL,1.39 ± 0.15
21,MWLKPCRGKIKMRGYFSLNG,inactive
22,PDDKLM,inactive
23,ICNSY,inactive

row,Substance,amyloid nucleation score
1,TTASFFLNKISLKNHRASCT,inactive
2,FIYIRYPHRRS,inactive
3,PLCNCVNRENSDGMMWGYRE,inactive
4,RCGYHFHQVAFFTKDVKVVE,inactive
5,PVWFTYQHHCWVKLICV,inactive
6,SLFCRWLVVYPSMLRVKRVR,inactive
7,WDKMYDDEGKGIVLEVVFLR,-0.012 ± 0.87
8,AMLLGFLGCGCKLHACCDY,inactive
9,YVCCHERWVGFYSGK,inactive
10,ELFMPDSIRT,inactive
11,YFCFVLFYLN,2.04 ± 0.07
12,YELGIHWTYCWL,2.39 ± 0.064
13,PNHYWFVAQFWLFSLTACHR,0.02 ± 0.77
14,SLRPGLVLVIERNEFKS,inactive
15,CWNDSLLCYMSSTMGNVQTT,inactive
16,QNCVTDMSKNLGIVREFSCS,inactive
17,HRDYFFRPTFL,inactive
18,QSSIVWCVSFIKSRCDFSIC,inactive
19,AFKGRLLG,inactive
20,VSYSNDKGIWIYGTSLYPGA,inactive
21,WFISTFDLDRYKFASCSKAW,inactive
22,IEIFEFFSRSSNRSQPGAPL,inactive
23,ATNLSYLNSAQVWLLT,inactive

row,Substance,amyloid nucleation score
1,LYMKSTKLVLTKRDISTFRC,1.11 ± 0.14
2,MLSLSLYKLFLRWKRTSSHD,0.904 ± 0.16
3,ALSNYVFLEVTLQTWVVIEV,inactive
4,AYKMTFWVQNYVFVYSFLFV,0.419 ± 0.23
5,QWVVEHRFWLVYNGEHRNSY,0.762 ± 0.15
6,TIWAGMLASR,inactive
7,FLVCHDYAYETVG,inactive
8,YSILYKSYYLRMHWVVASRL,inactive
9,YHAYRTGE,inactive
10,MTSMLVTMMPCWVMRFVVWE,inactive
11,LCLCYNLMSLLLLHLCREGQ,inactive
12,WVSSFTVAWKGGKQRVITVE,inactive
13,LHLYNVDVNLIGPQVY,inactive
14,RNSLFLLPSTCSVYIWCFS,2.8 ± 0.081
15,MNFGFWGTVHWSHASNHVGS,inactive
16,LTVRKSY,inactive
17,HECVYYSSLTQSYVSVYIFT,2.65 ± 0.077
18,FNFFQCFRQNASTIFSSGML,inactive
19,NNRDDK,inactive
20,YKEMVRRNLSRANKFDCGSM,inactive
21,LCFFVERRLKGYDVGLSNLL,inactive
22,HFPTCWVGYVKHAVLRYLIY,inactive
23,PNHYSYQCALLKRSTEFRHA,inactive

row,Substance,amyloid nucleation score
1,KCVWWCTNWLNVKWVYSTRC,inactive
2,VRGQFSSSVLGRCLGWAWTR,inactive
3,FCRLGIRSVFIYFKVTSLIV,0.049 ± 0.47
4,ICDSDFRY,inactive
5,AMCALVSIRP,inactive
6,TRTCRIWIKSVMGRRWVIRM,inactive
7,SIYLCLYREVSTVWGKRSN,inactive
8,WEKYMRMSGRPMGRFKMTGR,inactive
9,HLPRKLVRPRRF,-0.415 ± 1.2
10,MCKMLFSFLCLHKYCWVNVL,inactive
11,SKWAFPYPA,inactive
12,SCGHFIGCWMGTQVRIYGKQ,inactive
13,LKLRSRITNINILDVRYWIC,inactive
14,TKGFDVPT,inactive
15,FVQSGLFFMCDGSCGLLRVF,inactive
16,LNFCDRTIEICRLEY,inactive
17,IRSVL,inactive
18,LPGCVSEFG,inactive
19,YMLIKYGSL,0.449 ± 0.35
20,SGVYLSGSSLVCNTFFGTNQ,1.78 ± 0.088
21,ETFFIYDVALQ,inactive
22,AQGVTHLWEARNLWVWVEDQ,-0.316 ± 0.51
23,TLGLRADRYKLLYFFEGFLI,inactive

row,Substance,amyloid nucleation score
1,IVFFYAEIGYSPSQCRRRVA,inactive
2,RLGEGKCTPYQWFVSNSTSN,-0.166 ± 0.66
3,ADIRFKMRENDMFWSNGWGH,inactive
4,VRIWLNVYGVVSLGGRRLLV,inactive
5,YAKFCVSASYGVCQKLHGQF,0.331 ± 0.37
6,LCDVQNTNNW,inactive
7,DTRVGP,inactive
8,RYGFADSYMLFLFRYTPSSG,inactive
9,PVNEFYYLFCKRVYPCALQI,0.295 ± 0.53
10,HNYLRS,inactive
11,NLKNYVFWREILSYVSDPWD,inactive
12,YSVDGICTRAVLGPVDWVNG,inactive
13,NVLCSFYLMYGLTSAWSVS,inactive
14,QPYIVFISGFVSSLWESVRK,inactive
15,FDLPCSYRCSMTYCYGVNGI,1.02 ± 0.18
16,AGVVHRWGLQCFSLNFECGC,2.08 ± 0.079
17,IQTSNTHVVLVFFGRILRIC,inactive
18,NTGWSF,inactive
19,HIEFNWPVGLARSWMFCFSH,inactive
20,VVSIAIGKYNDRSMWW,1.75 ± 0.071
21,LCWPGTVDWFQGWRKAG,inactive
